The target in one data set is PU.1 full-length (mouse, UniProt P17433 1-272). As to the kind of experiment: EMSA; EMSA: 20 mM HEPES pH 7.3, 150 mM NaCl, 0.5 mM TCEP, 30 min room temperature, 0.5 uM nucleosome or DNA; FRET: 20 mM HEPES pH 7.1, 100 mM NaCl, 0.5 mM TCEP, 200 nM nucleosome. The following applies: protein: recombinant; tags: N-terminal His.
The next data set addresses PU.1 ETS Q218H (mouse, UniProt P17433 165-272, Q218H). As to the kind of experiment: EMSA; little effect of Q218H; EMSA: 20 mM HEPES pH 7.3, 150 mM NaCl, 0.5 mM TCEP, 30 min room temperature, 0.5 uM nucleosome or DNA; FRET: 20 mM HEPES pH 7.1, 100 mM NaCl, 0.5 mM TCEP, 200 n.
The target in the next data set is PU.1 ETS (ETSPU.1) (mouse, UniProt P17433 165-272). In words: EMSA; EMSA: 20 mM HEPES pH 7.3, 150 mM NaCl, 0.5 mM TCEP, 30 min room temperature, 0.5 uM nucleosome or DNA; FRET: 20 mM HEPES pH 7.1, 100 mM NaCl, 0.5 mM TCEP, 200 n.
For a further data set, the target named is MBP-DBD C/EBPalpha (UniProt P53566 214-359). In words: EMSA; 5 uM DNA; MBP fusion assumed; EMSA: 20 mM HEPES pH 7.3, 150 mM NaCl, 0.5 mM TCEP, 30 min room temperature, 0.5 uM nucleosome or DNA; FRET: 20 mM HEPES pH 7.1, 100 mM NaCl, 0.5 mM TCEP, 200 nM nucleosome. The settings on record: protein: recombinant; tags: N-terminal MBP; chain copies: 2; blunt.
Sequence of MBP-DBD C/EBPalpha (P53566 214-359): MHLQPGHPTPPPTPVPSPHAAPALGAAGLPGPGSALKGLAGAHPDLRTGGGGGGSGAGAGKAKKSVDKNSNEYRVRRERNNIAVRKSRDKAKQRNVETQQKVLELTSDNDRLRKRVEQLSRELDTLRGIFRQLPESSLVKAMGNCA

B1: 162 bp CX3CR1 DNA (dsDNA)
DNA 1: TAGGTGCAGGGCCTCTCGGCTGCTGATCTTCAGCTGGTTGCTGAGAGTTGCAGCATTGCTGAGTCTTAGCAATGGATACTTCCCGATTCCCCTCACAAAAATAGGTCAGTCTGTCTGGCTAGTTCTGTACTTGCAGACACAGGGCATGTGGGGTTCCTATTT
DNA 2: AAATAGGAACCCCACATGCCCTGTGTCTGCAAGTACAGAACTAGCCAGACAGACTGACCTATTTTTGTGAGGGGAATCGGGAAGTATCCATTGCTAAGACTCAGCAATGCTGCAACTCTCAGCAACCAGCTGAAGATCAGCAGCCGAGAGGCCCTGCACCTA
As for B1, the binding result with PU.1 full-length, with PU.1 ETS Q218H and with PU.1 ETS (ETSPU.1) was “binds” throughout.

B2: 20 bp C/EBPalpha site DNA (dsDNA)
DNA 1: ATCTTCAGCTGGTTGCTGAG
DNA 2: CTCAGCAACCAGCTGAAGAT
On to B2, for which the binding result with MBP-DBD C/EBPalpha is given as “binds”.
